Data taken from patent US20240360201A1 (BIOCYTOGEN PHARMACEUTICALS BEIJING, published 2024).

Experiments:
[1] = target: T1, FcγRIIA-R167-Sino (human, UniProt P12318 34-218, limits assumed); assay: SPR Biacore T200; binder captured on protein A chip, Fc receptor as analyte
T1 construct: bought; Arg at 167; also called FCRIIA-R167-Sino; CD32A Protein, Human, Recombinant (167 Arg, His Tag)
T1 sequence (looked up): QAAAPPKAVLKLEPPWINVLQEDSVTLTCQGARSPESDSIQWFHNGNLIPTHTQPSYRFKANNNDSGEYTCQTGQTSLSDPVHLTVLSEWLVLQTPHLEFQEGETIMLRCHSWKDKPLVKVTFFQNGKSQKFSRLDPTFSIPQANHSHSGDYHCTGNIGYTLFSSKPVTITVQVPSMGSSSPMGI
Description: (§1) Binding affinities of the fusion proteins PDL1-TGFbR2-3A (IgG1) (or PDL1-TGFbR2-3A-IgG1) and PDL1-TGFbR2-3A-IgG4 to human Fc receptors were measured by surface plasmon resonance (SPR) using Biacore™ T200 biosensor equipped with pre-immobilized protein A sensor chips. The Fc receptors included FcγRI-Sino, FcγRIIA-R167-Sino, FcγRIIIA-F176-Sino, FcγRIIIB-Sino, and FcγRn. A humanized CTLA4 antibody CT4-4G12-IgG1 (CT4-4G12, or 4G12; VH SEQ ID NO: 44, VL SEQ ID NO: 45) was used as a control to test binding affinity to FcγRn.

[2] = target: T2, FcγRIIIB-Sino (human, UniProt O75015 17-200, limits assumed); assay: as above
T2 construct: bought; also called FCRIIIB-Sino; CD16b Protein, Human, Recombinant (NA1 allotypes, His Tag)
Description: as §1

[3] = target: T3, FcγRI-Sino (human, UniProt P12314 16-288, limits assumed); assay: as above
T3 construct: bought; also called CD64 Protein, Human, Recombinant (His Tag)
Description: as §1

[4] = target: T4, FcRn (human, UniProt P55899 24-297; P61769 21-119); assay: as above
T4 construct: bought; also called FcγRn; FcRn-Acro
Description: as §1

[5] = target: T5, TGFb1 (Homo sapiens (Human), UniProt P01137 279-390, Active TGF-beta-1 is a disulfide-linked homodimer of this chain; one copy is given.); assay: SPR; binder as capture solution, TGFb1 as analyte
T5 construct: also called TGFb1 protein
T5 sequence (P01137 279-390 limits assumed): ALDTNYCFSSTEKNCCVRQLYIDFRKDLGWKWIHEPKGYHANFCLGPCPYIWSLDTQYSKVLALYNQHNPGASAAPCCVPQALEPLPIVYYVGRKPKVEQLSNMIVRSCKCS

T2 sequence (O75015 other isoform, or with tags, fused parts or gaps limits assumed): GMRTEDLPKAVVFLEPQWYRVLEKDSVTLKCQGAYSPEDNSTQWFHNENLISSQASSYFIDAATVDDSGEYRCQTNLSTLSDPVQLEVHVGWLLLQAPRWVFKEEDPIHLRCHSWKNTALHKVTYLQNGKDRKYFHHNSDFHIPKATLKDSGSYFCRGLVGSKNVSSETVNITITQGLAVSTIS
T3 sequence (P12314 16-288 limits assumed): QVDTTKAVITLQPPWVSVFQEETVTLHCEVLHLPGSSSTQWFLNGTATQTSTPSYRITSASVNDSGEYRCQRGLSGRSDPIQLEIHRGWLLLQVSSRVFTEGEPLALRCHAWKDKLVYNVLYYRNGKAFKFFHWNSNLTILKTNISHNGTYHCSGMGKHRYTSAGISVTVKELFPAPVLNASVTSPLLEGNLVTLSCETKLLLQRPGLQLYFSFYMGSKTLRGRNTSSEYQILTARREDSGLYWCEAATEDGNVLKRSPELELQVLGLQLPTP

Kd [1]: 844 nM | Kd [2]: 1330 nM | Kd [3]: 14.5 nM | Kd [4]: 19.4 nM | Kd [5]: 37.3 nM | koff [5]: 0.00573 s⁻¹ | kon [5]: 154000 M⁻¹ s⁻¹
B1: PDL1-TGFbR2-3A (antibody)
heavy: EVQLLESGGGLVQPGGSLRLSCAASGFTFSSYIMMWVRQAPGKGLEWVSSIYPSGGITFYADTVKGRFTISRDNSKNTLYLQMNSLRAEDTAVYYCARIKLGTVTTVDYWGQGTLVTVSSASTKGPSVFPLAPSSKSTSGGTAALGCLVKDYFPEPVTVSWNSGALTSGVHTFPAVLQSSGLYSLSSVVTVPSSSLGTQTYICNVNHKPSNTKVDKKVEPKSCDKTHTCPPCPAPELLGGPSVFLFPPKPKDTLMISRTPEVTCVVVDVSHEDPEVKFNWYVDGVEVHNAKTKPREEQYNSTYRVVSVLTVLHQDWLNGKEYKCKVSNKALPAPIEKTISKAKGQPREPQVYTLPPSRDEGGGGSGGGGSIPPHVQKSVNNDMIVTDNNGAVKFPQLCKFCDVRFSTCDNQKSCMSNCSITSICEKPQEVCVAVWRKNDENITLETVCHDPKLPYHDFILEDAASPKCIMKEKKKPGETFFMCSCSSDECNDNIIFSEEYNTSNPDGGGGSGGGGSVSLTCLVKGFYPSDIAVEWESNGQPENNYKTTPPVLDSDGSFFLYSKLTVDKSRWQQGNVFSCSVMHEALHNHYTQKSLSLSPGK
light: QSALTQPASVSGSPGQSITISCTGTSSDVGGYNYVSWYQQHPGKAPKLMIYDVSNRPSGVSNRFSGSKSGNTASLTISGLQAEDEADYYCSSYTSSSTRVFGTGTKVTVLGQPKANPTVTLFPPSSEELQANKATLVCLISDFYPGAVTVAWKADGSPVKAGVETTKPSKQSNNKYAASSYLSLTPEQWKSHRSYSCQVTHEGSTVEKTVAPTECS
notes: IgG1; also called PDL1-TGFbR2-3A (IgG1); PDL1-TGFbR2-3A-IgG1
